Here are results for 29 molecules from patent US20240270846A1 (published 2024).

The labels stand for the following.
B1: CE115HA000 V95E one-arm antibody (antibody, human IgG1, kappa, L234A L235A, N297A, name in Kabat numbering)
heavy: QVQLVESGGGVVQPGRSLRLSCAASGFTFSNAWMHWVRQAPGKGLEWVAQIKAKSNNYATYYAESVKGRFTISRDDSKNSLYLQMNSLKTEDTAVYYCRYEHYGAYYGVDAWGQGTTVTVSSASTKGPSVFPLAPSSKSTSGGTAALGCLVKDYFPEPVTVSWNSGALTSGVHTFPAVLQSSGLYSLSSVVTVPSSSLGTQTYICNVNHKPSNTKVDKKVEPKSCDKTHTCPPCPAPEAAGGPSVFLFPPKPKDTLMISRTPEVTCVVVDVSHEDPEVKFNWYVDGVEVHNAKTKPREEQYASTYRVVSVLTVLHQDWLNGKEYKCKVSNKALPAPIEKTISKAKGQPREPQVYTLPPSRCELTKNQVSLSCAVKGFYPSDIAVEWESNGQPENNYKTTPPVLDSDGSFFLVSKLTVDKSRWQQGNVFSCSVMHEALHNHYTQKSLSLSPDYKDDDDK
chain: EPKSSDKTHTCPPCPAPELLGGPSVFLFPPKPKDTLMISRTPEVTCVVVDVSHEDPEVKFNWYVDGVEVHNAKTKPREEQYNSTYRVVSVLTVLHQDWLNGKEYKCKVSNKALPAPIEKTISKAKGQPREPQVCTLPPSRDELTKNQVSLWCLVKGFYPSDIAVEWESNGQPENNYKTTPPVLDSDGSFFLYSKLTVDKSRWQQGNVFSCSVMHEALHNRYTQKSLSLSP
light: DIVMTQSPLSLPVTPGEPASISCRSSQSLVHSNRNTYLHWYQQKPGQAPRLLIYKVSNRFSGVPDRFSGSGSGTDFTLKISRVEAEDVGVYYCGQGTQVPYTFGQGTKLEIKRTVAAPSVFIFPPSDEQLKSGTASVVCLLNNFYPREAKVQWKVDNALQSGNSQESVTEQDSKDSTYSLSSTLTLSKADYEKHKVYACEVTHQGLSSPVTKSFNRGEC
notes: one-arm antibody
B2: CE115HA000 Y100aF one-arm antibody (antibody, human IgG1, kappa, L234A L235A, N297A, name in Kabat numbering)
heavy: B1 heavy with E101V, Y107F
chain: B1 chain
light: B1 light
notes: one-arm antibody
B3: CE115HA000 Y100aG one-arm antibody (antibody, human IgG1, kappa, L234A L235A, N297A, name in Kabat numbering)
heavy: B1 heavy with E101V, Y107G
chain: B1 chain
light: B1 light
notes: one-arm antibody
B4: CE115HA000 Y97D one-arm antibody (antibody, human IgG1, kappa, L234A L235A, N297A, name in Kabat numbering)
heavy: B1 heavy with E101V, Y103D
chain: B1 chain
light: B1 light
notes: one-arm antibody
B5: CE115HA000 V100cE one-arm antibody (antibody, human IgG1, kappa, L234A L235A, N297A, name in Kabat numbering)
heavy: B1 heavy with E101V, V109E
chain: B1 chain
light: B1 light
notes: one-arm antibody
B6: CE115HA000 Y100W one-arm antibody (antibody, human IgG1, kappa, L234A L235A, N297A, name in Kabat numbering)
heavy: B1 heavy with E101V, Y106W
chain: B1 chain
light: B1 light
notes: one-arm antibody
B7: CE115HA000 Y100G one-arm antibody (antibody, human IgG1, kappa, L234A L235A, N297A, name in Kabat numbering)
heavy: B1 heavy with E101V, Y106G
chain: B1 chain
light: B1 light
notes: one-arm antibody
B8: CE115HA000 Y100Q one-arm antibody (antibody, human IgG1, kappa, L234A L235A, N297A, name in Kabat numbering)
heavy: B1 heavy with E101V, Y106Q
chain: B1 chain
light: B1 light
notes: one-arm antibody
B9: CE115HA000 Y100aD one-arm antibody (antibody, human IgG1, kappa, L234A L235A, N297A, name in Kabat numbering)
heavy: B1 heavy with E101V, Y107D
chain: B1 chain
light: B1 light
notes: one-arm antibody
B10: CE115HA000 Y100L one-arm antibody (antibody, human IgG1, kappa, L234A L235A, N297A, name in Kabat numbering)
heavy: B1 heavy with E101V, Y106L
chain: B1 chain
light: B1 light
notes: one-arm antibody
B11: CE115HA000 Y100aS one-arm antibody (antibody, human IgG1, kappa, L234A L235A, N297A, name in Kabat numbering)
heavy: B1 heavy with E101V, Y107S
chain: B1 chain
light: B1 light
notes: one-arm antibody
B12: CE115HA000 Y100aL one-arm antibody (antibody, human IgG1, kappa, L234A L235A, N297A, name in Kabat numbering)
heavy: B1 heavy with E101V, Y107L
chain: B1 chain
light: B1 light
notes: one-arm antibody
B13: CE115HA000 Y100P one-arm antibody (antibody, human IgG1, kappa, L234A L235A, N297A, name in Kabat numbering)
heavy: B1 heavy with E101V, Y106P
chain: B1 chain
light: B1 light
notes: one-arm antibody
B14: CE115HA000 Y100aK one-arm antibody (antibody, human IgG1, kappa, L234A L235A, N297A, name in Kabat numbering)
heavy: B1 heavy with E101V, Y107K
chain: B1 chain
light: B1 light
notes: one-arm antibody
B15: CE115HA000 Y100S one-arm antibody (antibody, human IgG1, kappa, L234A L235A, N297A, name in Kabat numbering)
heavy: B1 heavy with E101V, Y106S
chain: B1 chain
light: B1 light
notes: one-arm antibody
B16: CE115HA000 V95G one-arm antibody (antibody, human IgG1, kappa, L234A L235A, N297A, name in Kabat numbering)
heavy: B1 heavy with E101G
chain: B1 chain
light: B1 light
notes: one-arm antibody
B17: CE115HA000 Y97S one-arm antibody (antibody, human IgG1, kappa, L234A L235A, N297A, name in Kabat numbering)
heavy: B1 heavy with E101V, Y103S
chain: B1 chain
light: B1 light
notes: one-arm antibody
B18: CE115HA000 Y100D one-arm antibody (antibody, human IgG1, kappa, L234A L235A, N297A, name in Kabat numbering)
heavy: B1 heavy with E101V, Y106D
chain: B1 chain
light: B1 light
notes: one-arm antibody
B19: CE115HA000 V100cD one-arm antibody (antibody, human IgG1, kappa, L234A L235A, N297A, name in Kabat numbering)
heavy: B1 heavy with E101V, V109D
chain: B1 chain
light: B1 light
notes: one-arm antibody
B20: CE115HA000 Y97R one-arm antibody (antibody, human IgG1, kappa, L234A L235A, N297A, name in Kabat numbering)
heavy: B1 heavy with E101V, Y103R
chain: B1 chain
light: B1 light
notes: one-arm antibody
B21: CE115HA000 Y100V one-arm antibody (antibody, human IgG1, kappa, L234A L235A, N297A, name in Kabat numbering)
heavy: B1 heavy with E101V, Y106V
chain: B1 chain
light: B1 light
notes: one-arm antibody
B22: CE115HA000 V100cP one-arm antibody (antibody, human IgG1, kappa, L234A L235A, N297A, name in Kabat numbering)
heavy: B1 heavy with E101V, V109P
chain: B1 chain
light: B1 light
notes: one-arm antibody
B23: CE115HA000 V95K one-arm antibody (antibody, human IgG1, kappa, L234A L235A, N297A, name in Kabat numbering)
heavy: B1 heavy with E101K
chain: B1 chain
light: B1 light
notes: one-arm antibody
B24: CE115HA000 Y100aA one-arm antibody (antibody, human IgG1, kappa, L234A L235A, N297A, name in Kabat numbering)
heavy: B1 heavy with E101V, Y107A
chain: B1 chain
light: B1 light
notes: one-arm antibody
B25: CE115HA000 V95S one-arm antibody (antibody, human IgG1, kappa, L234A L235A, N297A, name in Kabat numbering)
heavy: B1 heavy with E101S
chain: B1 chain
light: B1 light
notes: one-arm antibody
B26: CE115HA000 Y100aQ one-arm antibody (antibody, human IgG1, kappa, L234A L235A, N297A, name in Kabat numbering)
heavy: B1 heavy with E101V, Y107Q
chain: B1 chain
light: B1 light
notes: one-arm antibody
B27: CE115HA000 Y97P one-arm antibody (antibody, human IgG1, kappa, L234A L235A, N297A, name in Kabat numbering)
heavy: B1 heavy with E101V, Y103P
chain: B1 chain
light: B1 light
notes: one-arm antibody
B28: CE115HA000 Y100A one-arm antibody (antibody, human IgG1, kappa, L234A L235A, N297A, name in Kabat numbering)
heavy: B1 heavy with E101V, Y106A
chain: B1 chain
light: B1 light
notes: one-arm antibody
B29: CE115HA000 Y100K one-arm antibody (antibody, human IgG1, kappa, L234A L235A, N297A, name in Kabat numbering)
heavy: B1 heavy with E101V, Y106K
chain: B1 chain
light: B1 light
notes: one-arm antibody

Numbering of substitutions follows the chain as printed. In names and notes the source's numbering stands.

The target in this assay is T1, CD3 epsilon homodimer protein (UniProt P07766 23-126).
T1 construct: Construct of the homodimer protein is not described; also called CD3 (CD3 epsilon)
T1 sequence (P07766 23-126): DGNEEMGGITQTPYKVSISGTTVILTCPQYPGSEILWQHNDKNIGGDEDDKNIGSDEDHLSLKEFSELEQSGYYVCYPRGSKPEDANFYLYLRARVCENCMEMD
Description: SPR (Biacore T200), CD3 epsilon homodimer on CM4 chip, one-arm antibody as analyte; ratio to unaltered CE115HA000.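 Also: surface plasmon resonance run at 25 °C with HBS-EP+ as running buffer, CD3 epsilon homodimer attached by amine coupling, antibody passed over as analyte.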
Turning to B1, the “KD ratio (KD value of CE115HA000/KD value of the altered form)” value (from here on “KD ratio”) was 50.5. Under B2 stands 0.98; under B3, 1.01.

For B4, the “KD ratio” value is 64.7. As for B5, the figure is 1.31.

As for B6, the “KD ratio” value turned out to be 0.96. As for B7, the figure is 0.97; as for B8, 0.77. As for B9, the figure is 1.2. Under B10 stands 0.67; under B11, 0.59. B12: the “KD ratio” value was found to be 0.57. As for B13, the figure is 1.3; as for B14, 0.79; as for B15, 0.7.

As to B16, the “KD ratio” value stood at 78300. As for B17, the figure is 1180. Under B18 stands 0.63; under B19, 1.64; under B20, 23200. B21: the “KD ratio” value stood at 0.92. Under B22 stands 0.97; under B23, 1.15; under B24, 0.66. Under B25 stands 4.61. Under B26 stands 0.51; under B27, 12400. Consider B28, for which the “KD ratio” value was 0.92. Consider B29, for which the “KD ratio” value is 0.93.
